Biological target: T1, chimeric Nb_An05-Fc HCAb (Nb_An05 fused to the hinge and Fc-domain of human IgG1) (camelid)
T1 construct: also called synthetic HCAb; reconstituted HCAb; not shown: Fc (human IgG1, including the hinge), C-terminal, kept
Experiment: ELISA; format not told; Nb_An05-Fc HCAb on the VSG antigen
Details: both partners purified

B1: purified soluble AnTat1.1 VSG (variant-specific surface glycoprotein of Trypanosoma brucei AnTat1.1) (natural protein)
chain: QTAGRPLADVVGKTLCTYSKTAKRQAANLAQTLQRASSAAKQSRQAQQLAALALAKLPDYKEAAATLLIYATHKIQDAQASIENWTGENTKLVGQAMYSSGRIDELMLLLEGHREDGANGQDKTCLGAAAGGNTVNEFVKTECDTESGHNIEADNSNIGQAATTLSQESTDPEASGGASCKITANLATDYDSHANELPLLGGLLTIHNAGGFKTGQSLQTAAPTNKLISALKNKGAGVAAKLATVTSAAPTSKQELKTLLASKGERAKLQAANDEYNNWKPGAKPEDFDAHIKKVFGAEDGKDSAYAIALEGISIEAPLGGGQTQNKQLYSMQPKDLMAALIGTIAELQTAAATKPACPGHKQTTTESDALCSKIKDANECNSKHFCSYNGTETDSAKKCKYNATKASASDAPVTQAQTTSRSETPAEKCTGKKKDDCKDGCKWEAETCKD
Question: Does B1 bind?
Answer: binds

— article PMC3116811 (PLoS Pathogens, 2011)
